Experimental data published in PMC8664846, “Heterogeneous dissociation process of truncated RNAs by oligomerized Vasa helicase” (Communications Biology, 2021).

What was measured:
[1] = target: T1, Siwi-piRISC (FLAG-Siwi loaded with piRNA) (Bombyx mori, UniProt A8D8P8 1-899); test: single-molecule two (or three)-colour colocalisation (TIRF microscopy); premix of 10 nM biotinylated ATTO647N target RNA, 625 nM TMR-Vasa and 380 nM Siwi fixed on the surface by avidin-biotin through the target RNA; exogenous piRNA-4; assay buffer with oxygen scavenger; no ATP; settings: both partners purified
T1 construct: Siwi (Silkworm Piwi), PIWI protein of Bombyx mori; In the assay Siwi carried piRNA (exogenous piRNA-4) and was held on the glass through the biotinylated, ATTO647N-labelled target RNA; the only protein chain is Siwi; also called Silkworm Piwi; source: BmN4 cells, purified (anti-FLAG gel column)
T1 sequence (looked up): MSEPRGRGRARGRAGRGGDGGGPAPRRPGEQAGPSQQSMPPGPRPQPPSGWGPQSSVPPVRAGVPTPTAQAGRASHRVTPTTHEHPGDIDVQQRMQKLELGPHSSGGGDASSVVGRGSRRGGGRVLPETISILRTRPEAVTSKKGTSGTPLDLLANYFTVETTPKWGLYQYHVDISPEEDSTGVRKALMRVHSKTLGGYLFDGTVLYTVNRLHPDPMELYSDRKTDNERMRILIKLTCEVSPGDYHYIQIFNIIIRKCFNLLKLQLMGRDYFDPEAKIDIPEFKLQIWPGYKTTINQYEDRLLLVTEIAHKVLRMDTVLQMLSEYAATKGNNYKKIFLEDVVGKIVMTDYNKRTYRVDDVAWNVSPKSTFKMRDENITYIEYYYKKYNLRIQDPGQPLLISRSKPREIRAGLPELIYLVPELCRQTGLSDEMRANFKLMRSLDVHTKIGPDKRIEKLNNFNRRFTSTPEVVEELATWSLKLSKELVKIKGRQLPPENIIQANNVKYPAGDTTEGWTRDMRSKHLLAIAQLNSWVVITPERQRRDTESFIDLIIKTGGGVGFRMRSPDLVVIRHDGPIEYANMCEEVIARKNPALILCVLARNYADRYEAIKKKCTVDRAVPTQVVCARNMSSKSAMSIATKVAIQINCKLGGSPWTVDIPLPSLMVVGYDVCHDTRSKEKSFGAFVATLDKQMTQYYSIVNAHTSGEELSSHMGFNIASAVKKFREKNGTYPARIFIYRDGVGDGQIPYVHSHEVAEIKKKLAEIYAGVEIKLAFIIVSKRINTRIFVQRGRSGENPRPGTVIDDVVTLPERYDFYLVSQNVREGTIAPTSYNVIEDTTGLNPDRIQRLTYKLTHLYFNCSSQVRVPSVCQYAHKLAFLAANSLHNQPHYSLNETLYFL

[2] = target: the molecule itself; test: single-molecule fluorescence intensity counting (TIRF microscopy); TMR-labelled Vasa adsorbed on poly-L-lysine-coated glass; number of molecules in a spot from the intensity of a single TMR; 30 mM HEPES pH 7.3, 150 mM potassium acetate, 5 mM magnesium acetate, 0.1% NP-40, 500 uM TCEP, oxygen scavengers; with 5 ug/ml yeast RNA further oligomerization

- binding result [1]: binds
B1: FLAG-Halo-Vasa (wild-type Bombyx mori Vasa) (enzyme, UniProt O01378 1-601, looked up)
chain: MDDDWDDSCEAVVVPPPPLQNHDSVDEGHSLSRGRGFPSFNEDDEKENGYGERRGRGGRGGGRGRGGRGGRGGSREQHSDYETNGDHDDRGRGERGRGRGRGGRGGGRGGGGGGGDRNDYEDNEIGENGETKKPVTYVPPEPTNDETEIFSSTISSGINFDKFDHIAVKVSGENPPRPIESFETANLRKYVLDNVLKAGYRKPTPIQKNAIPIIMSGRDLMGCAQTGSGKTAAFLVPIINMLLQDPKDLISENGCAQPQVIIVSPTRELTLQIFNEARKFSYGSVLKVAVAYGGTAVRHQGDNIARGCHILVATPGRLHDFVERNRVSFGSVRFVVLDEADRMLDMGFMPSIEKMMLHPTMVETTKRQTLMFSATFPEDIQHLAGRFLNNYLFVAVGIVGGASTDVEQIFIEVTKYEKRNSLKQLIEENDGKRILVFVETKRNADFIAAMLSEQQLLTSSIHGDRMQREREEALQNFKSGKHCILVATAVAARGLDIKNVDIVVNYDLPKSIDEYVHRIGRTGRVGNRGKAVSFYDSDQDLALVADLSKILRQADQSVPDFLKGGGTATFKGNKYGGSDVRNFNNANTAVVDQGQEPEEEW
modifications: TMR-labelled HaloTag ligand on the HaloTag; the immobilised copy in the aggregation measurement also labelled with Biotin-XX-NHS
notes: Vasa, ATP-dependent DEAD-box RNA helicase of Bombyx mori, wild type; Non-fluorescent Vasa was used only in RNA dissociation assays; also called WT-Vasa; TMR-Vasa; source: BmN4 cells, purified (anti-FLAG gel column); not shown: HaloTag, N-terminal, kept
- stoichiometry N [2]: 2
